Measurements taken from patent publication US20150216891A1 (INSTITUT NATIONAL DE LA SANTE ET DE LA RECHERCHE MEDICALE …, published 2015).

Molecular target: T1, Translationally-Controlled Tumor Protein (TCTP) (human, UniProt P13693 1-172)
T1 construct: Endogenous TCTP in LNCaP cell lysates, immunoprecipitated with rabbit anti-TCTP antibody (Abcam); also called translationally-controlled tumour protein
T1 sequence: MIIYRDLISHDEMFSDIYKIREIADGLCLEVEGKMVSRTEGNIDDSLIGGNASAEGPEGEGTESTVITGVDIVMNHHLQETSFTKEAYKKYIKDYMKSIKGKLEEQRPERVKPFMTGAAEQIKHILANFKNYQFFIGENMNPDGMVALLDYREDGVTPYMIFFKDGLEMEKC
Assay: not named at this place (co-immunoprecipitation of Example 12)

B1: Hsp27 C1 deletion mutant (amino acids 93 to 205 of SEQ ID NO: 16), histidine-tagged (other, not shown: small tags and cut ends)
chain: DRWRVSLDVNHFAPDERTVKTKDGVVEISGKHEELQDEHGYISRCFTRKYTLPPGVDPTQVSSSLSPEGTLTVEAPMPKLATQSNEITIPVTFESRAQLGGPEAAKSDETAAK
notes: Transiently expressed in LNCaP cells
B1: binds.
